Data reported in patent US20230001009A1, “NANOPARTICLE COMPOSITIONS AND METHODS OF USE” (The Trustees of the University of Pennsylvania, priority 2019, published 2023).

Assays:
[1] = tested on: neutrophils in LPS-inflamed lungs; conditions: mouse, in vivo, iv
Description: Mice received IV LPS as a model of sepsis/ARDS and were injected five hours later with liposomes (approx. 5 mg/kg). Lung uptake provides a measure of tropism to marginated neutrophils. D5=5 DBCO per protein (IgG) on the tag. D5=5 DBCO per IgG on the tag. D20=20 per IgG on the tag. 25% chol=25% (moles cholesterol/total moles of lipid) of the lipids in liposomes was cholesterol. 25% cholesterol=25% (moles cholesterol/total moles of lipid) of the lipids in liposomes was cholesterol.
Radiolabeled clone 1A8 anti-Ly6G antibody was administered to determine the location and concentration of neutrophils in naïve mice and mice exposed to intravenous (IV) lipopolysaccharides (LPS) (FIG. 1A).
Previous work has traced the neutrophil response to bacteria in the lungs, determining that pulmonary neutrophils pursue and engulf active bacteria following either intravenous infection or infection of the airspace in the lungs. We injected heat-inactivated, oxidized, and fixed E. coli in naïve and IV-LPS-injured mice.
Neither nanoparticle was functionalized with antibodies or other affinity tags. The protein component of each particle was labeled with ^125I for tracing in biodistributions assessed 30 minutes after IV administration of nanoparticles.
Variants of LDNG structure, crosslinked protein NP structure, and NP structure based on charged protein interactions were traced in naïve control and IV-LPS-injured mice. As examples of highly crystalline protein-based NPs based on site-specific protein interactions (rather than site-indiscriminate interactions leading to crosslinker, gelation, or charge-based protein NPs), we also traced viruses in naïve and LPS-treated mice. Adding in liposomes and polystyrene NPs as example nanostructures not based on protein, we undertook a study to evaluate how aspects of NP structure including size, composition, surface chemistry, and crystallinity impact NP affinity for LPS-injured lungs.

[2] = tested on: ex vivo human lungs
Source text: Finally, fluorescent or ^125I-labeled LDNGs were infused via arterial catheter into ex vivo human lungs excluded from organ donation due to conditions (including edema and injury) resembling those found in ARDS patients. Immediately prior to LDNG administration, tissue dye was infused via the same catheter to stain regions of the lungs directly perfused by the chosen branch of the pulmonary artery (FIG. 7C). After infusion of LDNGs, phosphate buffered saline infusion rinsed away unbound particles. Perfused regions of the lungs were dissected and divided into ˜1 g segments, divided into regions deemed to have high, medium, or low levels of staining with tissue dye. For lungs receiving fluorescent LDNGs, well-perfused and poorly-perfused regions were selected for sectioning and fluorescent imaging. Fluorescent signal from LDNGs was clearly detectable in sections of well-perfused tissue, but not poorly-perfused tissue (FIG. 7D). In experiments with ^125I-labeled LDNGs, ^131I-labeled ferritin was concurrently infused (i.e. a mix of ferritin and LDNGs was infused) as an internal control particle shown to have no affinity for injured mouse lungs. For LDNGs and ferritin infused into the same lungs via the same branch of the pulmonary artery, LDNGs retained in the lungs at 52.15% initial dose and ferritin retained at 9.27% initial dose (FIG. 7E). […]

Substance	Lung uptake, percent of initial dose [1] [% initial dose]	Retained in the lungs [2] [% initial dose]	LPS:naïve lung uptake ratio [1]
transferrin: isolated radiolabeled protein	1.45		
bovine albumin: isolated radiolabeled protein	1.38		
ferritin	0.68	9.27	1.15
lysozyme: isolated radiolabeled protein	1.34		
